Legend:
[1] = test system: Vitamin D receptor binding to the VDRE in MG63 cells; experiment: Vitamin D receptor binding to the VDRE, electrophoretic mobility shift assay; assay type: cell-based, human; settings: 2 μg/ml mim-1, absence of added 1,25(OH)2 D3
Procedure: Competitive displacement (CD) of vitamin D receptor interaction by 100× of cold probe. […] CD is competitive displacement as in FIG. 18A and NS is incubaton with 100× NonSpecific probe (vitellogenin estrogen response element), both were included as controls with 2 hr mim-1 extracts.
Double stranded oligonucleotide probe, corresponding to the VDRE from the human osteocalcin promoter, is ^32P-labeled with T4 kinase and incubated with nuclear extracts from MG-63 cells treated with 2 μg/ml of mim-1 for 0, 10, 30, 60 and 120 minutes, respectively. Vitamin D receptor interaction was displaced competitively by 100× of cold probe. The cells were then treated with mim-1 for 2 to 3 hrs and VDR/VDRE supershifted with a 1:5 or 1:10 dilution of VDR polyclonal antibody 4707. Competitive displacement with cold probe and incubaton with 100× vitellogenin estrogen response element as a non-specific probe were included as […] controls with 2 hr mim-1 extracts. VDR/VDRE from MG63 cells was compared to recombinant VDR heterodimer (rVDRhd).

[2] = test system: A549, lung cancer; experiment: Cancer cell growth inhibition, cell counts; assay type: cell-based, human; settings: A549, three days, 0.5-4 μg/ml mim-1
Procedure: (§1) Cancer cells (A549, lung cancer; MDA231, Breast cancer; and AD10, ovarian cancer) were cultured for three days in the presence of the indicated concentrations of mim-1. Cells were counted in 10 random grids, and the data is plotted as Percent of Control (no added mim-1). Data are representative of 2 separate experiments.
(§2) Three cancer cell lines (A549, lung cancer; MDA231, breast cancer; and AD10, ovarian cancer) were cultured for three days in the presence of 0 (control), 0.5, 1, 2 and 4 μg/ml of mim-1. Cells were counted in 10 random grids, and the data is plotted as Percent of Control (no added mim-1).

[3] = test system: AD10, ovarian cancer; experiment: Cancer cell growth inhibition, cell counts; assay type: cell-based, human; settings: AD10, three days, 0.5-4 μg/ml mim-1
Procedure: as §1, §2

[4] = test system: MDA231, breast cancer; experiment: Cancer cell growth inhibition, cell counts; assay type: cell-based, human; settings: MDA231, three days, 0.5-4 μg/ml mim-1
Procedure: as §1, §2

[5] = test system: MC3T3-E1 cells; experiment: In vitro matrix mineralization (VonKossa staining, total calcium); assay type: cell-based; settings: 16 days
Procedure: MC3T3-E1 cells (2.5×10^4 cells/well) were cultured in DMEM/F12 plus 1% FBS in the presence of 10 mM glycerophosphate, 50 μg/ml ascorbic acid and either, 0, 3 or 15 nM (FIGS. 19A–C, respectively) of purified mim-1 for 16 days. […] 200× magnification, data is representative of n=2 experiments. VonKossa staining was confirmed by measuring total calcium in each well. Calcium was acid hydrolyzed, neutralized and measured on a Kodak Ektachem DTSC II and the results illustrated in the bar graph at the right. Calcium measurements are representative single determinations from 2 separate experiments.
MC3T3-E1 cells, seeded at 2.5×10^4 cells/well, were cultured in DMEM/F12 plus 1% FBS in the presence of 10 mM glycerophosphate, 50 μg/ml ascorbic acid and either 0, 3 or 15 nM of purified mim-1 for 16 days. […] VonKossa staining was confirmed by measuring total calcium in each well. The calcium was acid hydrolyzed, neutralized and measured on a Kodak Ektachem DTSC II.

[6] = test system: cbfal binding to osteocalcin promoter in MG63 cells; experiment: cbfal binding to osteocalcin promoter site, electrophoretic mobility shift assay; assay type: cell-based, human
Procedure: (§3) FIG. 17A show cells treated with 2 μg/ml of purified mim-1 for 0, 10, 30, 60, 120, and 240 min washed, lysed and nuclear extracts prepared. A 27 bp oligonucleotide from the osteocalcin proximal cbfal binding site was 5′ end labeled with γ^32P-ATP by T4 kinase. Equivalent amounts of nuclear extracts were incubated with the probe for 30 min and samples resolved on a 5% gel, fixed, dried and binding visualized by autoradiography.
as §3, with “Cells were treated” for “FIG. 17A show cells treated”, “240 min,” for “240 min”, “with ^32P-ATP” for “with γ^32P-ATP”, “by autoradiography for specific binding.” for “by autoradiography.”
Similarly, cells were treated with 0, 0.02, 0.3 and 2.0 μg/ml of mim-1 for 2 hrs and mobility shifts done as discussed.

[7] = test system: mouse marrow macrophage; experiment: Osteoclast-like cell differentiation, mouse marrow macrophage differentiation model; assay type: cell-based; settings: presence of M-CSF and soluble RANKL
[8] = test system: human bone marrow cells; experiment: FACS analysis of human bone marrow cell cultures (CD14+); assay type: cell-based; settings: 2 μg/ml mim-1, 3 days
Procedure: Human bone marrow cells were cultured in IMDM with GM-CSF (50 ng/ml), IL3 (10 ng/ml) and 20 ng/ml SCF (controls) for 3 days −/+2 […] mim-1 and analyzed by FACS analysis. The remaining cells were cultured in colony formation assays an additional 14 days with the same growth factors minus or plus 2 μg/ml mim-1. Data is the average −/+ SEM of 3 separate experiments.
Human bone marrow cells were cultured in IMDM with GM-CSF (50 ng/ml), IL3 (10 ng/ml) and […] SCF (controls) for 3 days with or without 2 μg/ml mim-1. The cells were analyzed by FACS analysis. The remaining cells were cultured in colony formation assays an additional 14 days with the same growth factors with or without 2 μg/ml mim-1.

[9] = test system: mesenchymal stem cells (osteoblast precursors); experiment: Transwell migration assay of calcein-loaded mesenchymal stem cells; assay type: cell-based
Procedure: Mesenchymal stem cells were loaded in the presence of 5 μM calcein in αMEM, and the cells washed twice with media. Cells were plated at 10,000 cells/well in the upper well of Neuroprobe transwell plates. The concentration dependence of mim-1 in migration assays was determined in the transwell migration assay with the indicated concentrations of mim-1 in the bottom chamber. Cells were cultured for 4 hours at 37° C. in a humidified chamber with 5% CO2. Remaining cells were scraped from the upper well and removed. Migration was measured on a fluorescence plate-reader which measures fluorescence in the bottom well and migration was quantified by comparisons with a standard curve generated by serial dilutions of calcein loaded cells plated directly in the bottom chamber. Data is from a single experiment performed in quadruplicate.

[10] = test system: mesenchymal stem cells; experiment: Cell proliferation of osteoblast precursor cells; assay type: cell-based; settings: concentrations up to 2 μg/ml
[11] = test system: p42/44 MAP-kinase in MG63 cells; experiment: p42/p44 MAP kinase activation, phospho-specific Western blot; assay type: cell-based, human
Procedure: Cells were treated with 2 μg/ml of purified mim-1 for the indicated times, washed, lysed and 25 […] protein resolved on 10% SDS PAGE. Protein was transferred to PVDF membrane and the membranes probed with phospho-specific p42/p44 MAP kinase antibody (New England Biolabs).
Mim-1 also stimulated the increased p42/44 MAP-kinase phosphorylation in a time-dependent manner in MG63 cells. The time dependence of mim-1 activation of MAP kinase by Western analysis with the phospho specific MAP kinase antibody was tested. This antibody detects only the phosphorylated (activated) form of MAP kinase (FIG. 16). Mim-1 stimulates the time dependent activation of MAP kinase with maximal effects at 3 minutes (compare this with 2 μg/ml in FIG. 15). The concentration dependence for activation of MAP kinase was maximal at 1–2 μg/ml (not shown) similar to the effects of mim-1 on tyrosine phosphorylation (FIG. 15).

B1: mim-1: 35 kD osteoclast secreted chemokine-like protein, SEQ ID NO: 8, homologous with Lect2 (protein, listed as Gallus gallus)
chain: MPALSLIALLSLVSTAFARQWEVHPPQQQGRHWAQICSGNPFNRIRGCDRYGCGNYGASRQGKGEKHKGVDVICTDGSIVYAPFWGQLSGPIRFFHNGNAIDDGVQISGSGYCVKLVCIHPIRYHGQIQKGQQLGRMLPMQKVFPGIVSHIHVENCDQSDPTHLLRPIPDISPPFPQQDAHWAVVCAGNPTNEIRGCKDYGCGYFGAPRRNGKGEKHKGVDVICADGATVYAPFSGELSGPVKFFHNGNAIDDGVGIRGSGFCVKLLCIHPIRYNGRISKGQVLGRMLPMQRVFPGIISHIHVENCDRSDPTSNLERGKGESEMEV
modifications: amino acid sequence of mim-1 protein
- Vitamin D receptor binding to the VDRE [1]: stimulated Vitamin D receptor binding to the VDRE in a time dependent manner
- inhibition of cell growth [2]: concentration dependent inhibition of cell growth
- inhibition of cell growth [3]: concentration dependent inhibition of cell growth
- inhibition of cell growth [4]: concentration dependent inhibition of cell growth
- concentration of maximal effect on mineralization [5]: 0.5 µg/mL
- cbfal binding above control levels ([6]; 20 ng/ml mim-1, 2 hrs): ~2 fold
- concentration to stimulate cbfal binding lower than that to stimulate tyrosine phosphorylation ([6]; 20 ng/ml versus tyrosine phosphorylation): 5–10 fold
- time of maximal cbfal binding ([6]; 2 μg/ml mim-1): 2 h
- increase in binding of cbfal transcription factor to osteocalcin oligonucleotide probe ([6]; 2 μg/ml mim-1, MG63 cells): five-fold
- decrease in cbfal binding from maximum ([6]; 2 μg/ml mim-1, by 4 hours): ~30%
- osteoclast-like cell differentiation [7]: effectively blocks osteoclast-like cell differentiation
- proportion of CD14+ cells [8]: increase in the proportion of cells that are CD14^+
- concentration of maximal effect on mesenchymal stem cell migration ([9]; 4 hours, purified mim-1 in bottom chamber): approximately 100 ng/ml
- concentration to stimulate migration lower than that to stimulate tyrosine phosphorylation ([9]; migration versus tyrosine phosphorylation): five- and ten-fold
- effect on cell proliferation [10]: no effect
- time of maximal activation of MAP kinase ([11]; 2 μg/ml mim-1): 3 min
- concentration of maximal activation of MAP kinase ([11]; not shown): 1 to 2 µg/mL

— US7048919B2, “Osteoclast secreted chemokine and uses thereof” (The UAB Research Foundation, priority 2000, dated 2006)
